Experimental data as given in patent US20240117074A1 (published 2024).
Substitutions are numbered along the chain they refer to. Values belong to the binder of their own block, whether it stands above or below them.

Key:
[1] = molecular target: T1, human CEACAM5, recombinant soluble (hCEACAM-5, R&D Systems #4128-CM-050) (human, UniProt P06731 35-685); assay: dual target ELISA: CEACAM5 coated, biotinylated hCD40-muIg detection
T1 construct: Bought protein; also called Human CEACAM5-His; monomeric human CEACAM5-His
T1 sequence (looked up): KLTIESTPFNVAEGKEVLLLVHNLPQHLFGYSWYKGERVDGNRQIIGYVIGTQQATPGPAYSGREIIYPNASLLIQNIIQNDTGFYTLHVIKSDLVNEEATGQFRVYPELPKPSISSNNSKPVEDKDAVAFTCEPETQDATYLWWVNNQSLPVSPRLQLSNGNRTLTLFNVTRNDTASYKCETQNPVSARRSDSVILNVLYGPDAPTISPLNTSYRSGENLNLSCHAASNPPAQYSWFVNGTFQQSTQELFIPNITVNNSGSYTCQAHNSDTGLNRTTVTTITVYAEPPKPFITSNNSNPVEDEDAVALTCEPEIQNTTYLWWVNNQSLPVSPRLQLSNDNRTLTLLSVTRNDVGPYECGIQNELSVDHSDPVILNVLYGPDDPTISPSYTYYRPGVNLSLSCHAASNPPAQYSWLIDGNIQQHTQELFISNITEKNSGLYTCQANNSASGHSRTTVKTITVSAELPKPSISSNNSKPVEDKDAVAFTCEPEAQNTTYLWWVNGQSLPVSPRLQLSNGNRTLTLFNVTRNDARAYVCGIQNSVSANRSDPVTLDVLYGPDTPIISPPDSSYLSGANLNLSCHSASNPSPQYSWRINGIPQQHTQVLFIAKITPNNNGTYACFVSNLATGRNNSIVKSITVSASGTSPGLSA
Method: ELISA plates were coated with human EpCAM, bsAb was added followed by detection using goat anti human-kappa light chain-HRP.
96-well plates were coated with 0.5 μg/mL antigen, hCEACAM-1 (2244-CM-050, R&D Systems), hCEACAM-5 (4128-CM-050, R&D Systems), hCEACAM-6 (3934-CM-050, R&D Systems) or CEACAM-8 (9639-CM-050, R&D Systems) in PBS over night at 4° C. After washing in PBS/0.05% Tween 20 (PBST), the plates were blocked with PBST, 2% BSA for at least 30 minutes at room temperature before a second round of washing. RUBY bsAbs, diluted in PBST, 0.5% BSA, were then added and allowed to bind for at least 1 hour at room temperature. […] Finally, a final round of washing was performed and bound complexes detected using SuperSignal Pico Luminescent as substrate and luminescence signals were measured using Fluostar Optima.

[2] = molecular target: T2, biotinylated human CD40-mouse Fc (Ancell #504-030) (human, UniProt P25942 21-193, biotinylated); assay: Octet BLI, captured CD40mFc-biotin, bsAb in solution
T2 construct: Bought fusion protein; also called hCD40-muIg; CD40mFc-biotin; not shown: mouse Ig Fc of the bought fusion protein

[3] = molecular target: CD40 expressed on cells (CD40 reporter cells, HEK Blue CD40L cells, primary B cells, tumor APCs) (human, UniProt P25942 21-277); assay: cell-based or functional assay
[4] = molecular target: T1, human CEACAM5, recombinant soluble …; assay: Octet BLI, captured bsAb, soluble antigen
[5] = molecular target: T1, human CEACAM5, recombinant soluble …; assay: Octet BLI, captured bsAb, monomeric CEACAM5 in solution
[6] = molecular target: T3, monomeric Cynomolgus CEACAM5-His (Sino Biological #90891-C08H) (cynomolgus); assay: Octet BLI, captured bsAb, soluble antigen
T3 chain: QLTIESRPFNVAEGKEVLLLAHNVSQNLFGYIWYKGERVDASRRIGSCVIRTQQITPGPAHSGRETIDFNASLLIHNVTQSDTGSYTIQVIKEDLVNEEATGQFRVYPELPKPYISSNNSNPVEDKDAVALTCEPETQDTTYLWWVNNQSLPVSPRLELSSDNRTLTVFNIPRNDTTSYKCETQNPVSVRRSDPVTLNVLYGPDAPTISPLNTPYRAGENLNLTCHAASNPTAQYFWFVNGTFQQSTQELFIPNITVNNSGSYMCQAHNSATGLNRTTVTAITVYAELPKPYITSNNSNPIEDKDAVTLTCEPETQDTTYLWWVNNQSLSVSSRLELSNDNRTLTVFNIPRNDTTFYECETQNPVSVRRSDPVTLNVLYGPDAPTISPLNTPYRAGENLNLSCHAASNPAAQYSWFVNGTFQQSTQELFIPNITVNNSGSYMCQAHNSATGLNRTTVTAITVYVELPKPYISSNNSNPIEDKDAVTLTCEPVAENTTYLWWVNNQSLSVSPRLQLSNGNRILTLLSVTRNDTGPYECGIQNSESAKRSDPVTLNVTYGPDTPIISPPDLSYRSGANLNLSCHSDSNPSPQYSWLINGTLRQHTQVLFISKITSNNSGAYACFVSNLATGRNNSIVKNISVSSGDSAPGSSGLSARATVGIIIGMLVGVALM

T2 sequence (P25942 21-193): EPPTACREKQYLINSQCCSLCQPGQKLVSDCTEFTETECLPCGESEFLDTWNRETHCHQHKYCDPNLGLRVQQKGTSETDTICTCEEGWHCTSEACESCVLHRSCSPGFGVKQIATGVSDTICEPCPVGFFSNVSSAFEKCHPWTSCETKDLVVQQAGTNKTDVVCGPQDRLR
Sequence of CD40 expressed on cells (CD40 reporter cells, HEK Blue CD40L cells, primary B cells, tumor APCs) (P25942 21-277): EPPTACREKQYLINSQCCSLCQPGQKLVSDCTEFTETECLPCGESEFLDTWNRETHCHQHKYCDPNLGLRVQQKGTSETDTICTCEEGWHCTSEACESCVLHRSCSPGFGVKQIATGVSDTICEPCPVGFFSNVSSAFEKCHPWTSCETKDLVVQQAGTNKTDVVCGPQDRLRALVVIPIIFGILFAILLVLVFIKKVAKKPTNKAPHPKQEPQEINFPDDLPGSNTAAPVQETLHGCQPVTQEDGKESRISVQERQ

B1: Multi39 (bispecific antibody)
heavy 1: not shown
light: not shown
heavy 2: EVQLLESGGGLVQPGGSLRLSCAASGFTFYDHAMSWVREAPGKGLEWVSAISGSYGSTGYADSVKGRFTISRDNSKNTLYLQMNSLRAEDTAVYYCARWGGWAGDIDYWGQGTLVTVSSASTKGPSVFPLAPSSKSTSGGTAALGCLVKDYFPEPVTVSWNSGALTSGVHTFPAVLQSSGLYSLTSVVEVPSSSLGTQTYICNVNHKPSNTKVDKKVEPKSC
notes: copies: 2 + 2 + 2
binding result [1]: binds

B2: AC_05293 (bispecific antibody)
chain 1: EVQLLESGGGLVQPGGSLRLSCAASGFTFSSYAMSWVRQAPGKGLEWVSGIGSYGGGTYYADSVKGRFTISRDNSKNTLYLQMNSLRAEDTAVYYCARYVNFGMDYWGQGTLVTVSS
chain 2: DIQMTQSPSSLSASVGDRVTITCRASQSISSYLNWYQQKPGKAPKLLIYAASSLQSGVPSRFSGSGSGTDFTLTISSLQPEDFATYYCQQYGRNPPTFGQGTKLEIK
chain 3: EVQLLEQSGAELVRPGTSVKISCKASGYAFTNYWLGWVKQRPGHGLEWIGDIFPGSGNIHYNEKFKGKATLTADKSSSTAYMQLSSLTFEDSAVYFCARLRNWDEPMDYWGQGTTVTVSS
chain 4: ELVMTQSPSSLTVTAGEKVTMSCKSSQSLLNSGNQKNYLTWYQQKPGQPPKLLIYWASTRESGVPDRFTGSGSGTDFTLTISSVQAEDLAVYYCQNDYSYPLTFGAGTKLEIK
Kd [2]: 76000 pM
koff [2]: 0.00062 s⁻¹
kon [2]: 8300 M⁻¹ s⁻¹

B3: AC_05300 (bispecific antibody)
chain 1: B2 chain 3
chain 2: B2 chain 4
chain 3: B2 chain 1
chain 4: B2 chain 2
Kd [2]: 8500 pM
koff [2]: 0.0046 s⁻¹
kon [2]: 540000 M⁻¹ s⁻¹

B4: AC_05330 (bispecific antibody)
chain 1: EVQLLESGGGLVQPGGSLRLSCAASGFTFSTYGMHWVRQAPGKGLEWLSYISGGSSYIFYADSVRGRFTISRDNSENALYLQMNSLRAEDTAVYYCARILRGGSGMDLWGQGTLVTVSS
chain 2: QSVLTQPPSASGTPGQRVTISCTGSSSNIGAGYNVYWYQQLPGTAPKLLIYGNINRPSGVPDRFSGSKSGTSASLAISGLRSEDEADYYCAAWDKSISGLVFGGGTKLTVLG
chain 3: not shown
chain 4: B2 chain 2 with Y91T, G92Y, R93G, N94Y, P95L, P96H
Kd [2]: 450 pM
koff [2]: 1.6e-05 s⁻¹
kon [2]: 35000 M⁻¹ s⁻¹

B5: AC_05331 (bispecific antibody)
chain 1: not shown
chain 2: B2 chain 2 with Y91T, G92Y, R93G, N94Y, P95L, P96H
chain 3: B4 chain 1
chain 4: B4 chain 2
Kd [2]: 230 pM
koff [2]: 8.1e-06 s⁻¹
kon [2]: 36000 M⁻¹ s⁻¹

Other lines, results leading:

EC50 of HEK Blue CD40L reporter activation (SEAP), CHO-CEACAM5 crosslinking, 0 Raji sink cells/well [3]: 30 pM
EC50 of HEK Blue CD40L reporter activation (SEAP), CHO-CEACAM5 crosslinking, 10 000 Raji sink cells/well [3]: 50 pM
EC50 of HEK Blue CD40L reporter activation (SEAP), CHO-CEACAM5 crosslinking, 30 000 Raji sink cells/well [3]: 80 pM
EC50 of HEK Blue CD40L reporter activation (SEAP), CHO-CEACAM5 crosslinking, 90 000 Raji sink cells/well [3]: 230 pM
Kd [4]: < 1 pM
koff [4]: < 1e-07 s⁻¹
kon [4]: 520000 M⁻¹ s⁻¹
Kd [5]: 1800 pM
koff [5]: 0.00042 s⁻¹
kon [5]: 240000 M⁻¹ s⁻¹
B6: AC_05339 (bispecific antibody)
chain 1: not shown
chain 2: DIQMTQSPSSLSASVGDRVTITCRASQSISSYLNWYQEKPGKAPKLLIYAASSLQSGVPSRFSGSGSGTDFTLTISSLQPEDFATYYCQQAGNPHTFGQGTKLEIKRTVAAPSVFIFPPSDEQLKSGTASVVCYLNNFYPREAKVQWKVDNALQSGNSQESVTEQDSKDSTYSLWSTLTLSKADYEKHKVYACEVTHQGLSSPVTKSFNRGEC
chain 3: EVQLLESGGGLVQPGGSLRLSCAASGFTFSTYGMHWVREAPGKGLEWLSYISGGSSYIFYADSVKGRFTISRDNSKNTLYLQMNSLRAEDTAVYYCARILRGGSGMDLWGQGTLVTVSSASTKGPSVFPLAPSSKSTSGGTAALGCLVKDYFPEPVTVSWNSGALTSGVHTFPAVLQSSGLYSLTSVVEVPSSSLGTQTYICNVNHKPSNTKVDKKVEPKSC

Kd [6]: 20000 pM
koff [6]: 0.0038 s⁻¹
kon [6]: 190000 M⁻¹ s⁻¹
Kd [4]: 1000 pM
koff [4]: 0.00053 s⁻¹
kon [4]: 510000 M⁻¹ s⁻¹
B7: AC_05355 (bispecific antibody)
chain 1: not shown
chain 2: DIQMTQSPSSLSASVGDRVTITCRASENIFSYLAWYQEKPGKAPKLLIYNTRTLQSGVPSRFSGSGSGTDFTLTISSLQPEDFATYYCQHHYGTPFTFGQGTKLEIKRTVAAPSVFIFPPSDEQLKSGTASVVCYLNNFYPREAKVQWKVDNALQSGNSQESVTEQDSKDSTYSLWSTLTLSKADYEKHKVYACEVTHQGLSSPVTKSFNRGEC
chain 3: B6 chain 3
